Columns and labels:
[1] = molecular target: FKBP fused to miRFP-GAF670 (UniProt P62942); assay: cell-based or functional assay
[2] = molecular target: FKBP fused to miRFP-GAF709 (UniProt P62942); assay: cell-based or functional assay
[3] = molecular target: the molecule itself; assay: sedimentation velocity analytical ultracentrifugation in PBS at 20 C, self-association (no dimer)
Method: FIG. 11A-11B. Monomeric state of miRFPs confirmed by analytical ultracentrifugation analysis. miRFPs from each family of miRFPs were analyzed by sedimentation velocity analytical ultracentrifugation. miRFP670 represents miRFP proteins derived from RpBphP1; miRFP670-2 represents monomerized iRFP670 and iRFP702 derived from RpBphP6; miRFP720 represents monomerized iRFP682, iRFP713, and iRFP720 derived from RpBphP2. The proteins were analyzed at concentrations of 15 μM in PBS buffer at 20° C., the time-derivative method was used. (a) Overlay of the sedimentation coefficient distributions for iRFP670-2 (blue), iRFP713 (red), miRFP720 (magenta), and miRFP670 (cyan). (b) Overlay of the normalized best-fit sedimentation coefficient distributions. (c) The residuals corresponding to the resolved fits shown in (b).
Analytical ultracentrifugation was conducted at 20° C. and 58,000 r.p.m. with anOptima XL-I centrifuge (Beckman Coulter) using the AN-60Ti rotor and the absorption optics set to 645 nm. Sednterp v.20120828beta software was used to calculate the partial specific volume of the proteins from their sequence and the density and viscosity of the buffers. The sedimentation parameters were corrected to standard conditions (20,w) using these values. […]

[4] = molecular target: T1, miRFP-GAF670; assay: bimolecular fluorescence complementation in HeLa cells (fragments as FRB and FKBP fusions, rapamycin-induced)
T1 construct: Split fragment; in the experiments it stood as a fusion (to FKBP or PCP); also called GAF fragment of miSplit670
T1 chain: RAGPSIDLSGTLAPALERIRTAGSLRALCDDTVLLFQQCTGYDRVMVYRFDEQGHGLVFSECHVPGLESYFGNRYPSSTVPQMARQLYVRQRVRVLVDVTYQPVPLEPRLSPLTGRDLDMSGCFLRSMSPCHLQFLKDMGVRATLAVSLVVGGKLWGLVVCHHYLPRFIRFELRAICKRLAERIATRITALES
Method: (§1) The two mSplits share the same miRFP-PAS fragment that can interact with either miRFP-GAF670 or miRFP-GAF709 fragments producing the fluorescence signal corresponding to complemented miSplit670 or miSplit709, respectively. (b, c) Brightness and complementation contrast of miSplit670 (b) and miSplit709 (c) in live HeLa cells. HeLa cells were transiently transfected with the plasmids encoding the indicated proteins. Rapamycin (Rapa) was added where indicated. The mean fluorescence intensities of cells were analyzed by flow cytometry. Error bars, s.d. (n=3; transfection experiments). (d) Two-color imaging of two alternative PPIs in one cell. […] MCP and PCP are fused with two fragments of mi Split reporter. mRNA serves as a scaffold to bring two split fragments together and reconstitute fluorescence. […] The mean fluorescence intensities of cells were analyzed by flow cytometry. […] (g) Representative images of live HeLa cells analyzed in (f). […]
(§2) We first characterized miSplits using a rapamycin-induced PPI of FRB and FKBP proteins. We fused FRB to the miRFP-PAS domain and FKBP to either miRFP-GAF670 or miRFP-GAF709 domains and tested their effective brightness and BiFC contrast (the ratio between a stimulus-induced fluorescence signal and a fluorescence signal originated from non-specific complementation) in mammalian cells.

[5] = molecular target: T2, miRFP-GAF709; assay: as above
T2 construct: Split fragment; in the experiments it stood as a fusion (to FKBP or PCP); also called GAF fragment of miSplit709
T2 chain: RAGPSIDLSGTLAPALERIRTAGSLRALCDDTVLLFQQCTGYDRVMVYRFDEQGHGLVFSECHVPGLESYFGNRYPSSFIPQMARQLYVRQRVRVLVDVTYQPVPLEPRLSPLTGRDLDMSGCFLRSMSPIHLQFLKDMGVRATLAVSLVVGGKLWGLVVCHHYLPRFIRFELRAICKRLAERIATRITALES
Method: as §1, §2

[6] = molecular target: the molecule itself; assay: size exclusion chromatography, self-association (no dimer)
From the text: As a result, we have obtained miRFP670 (excitation/emission at 642 nm/670 nm) having Cys in the GAF domain and its dimmer version miRFP670v1 (Table 1). By changing Cys back to Ile and mutating residues 201 and 202, we found two red-shifted variants, miRFP703 (excitation/emission at 673 nm/703 nm) and miRFP709 (excitation/emission at 686 nm/709 nm) (Table 1). […] Absorbance of miRFPs was characterized by small side peaks at 280 nm (protein absorbance) and 390 nm (so called Soret band common to all tetrapyrrole compounds) and by large main peaks at 644 nm, 676 nm and 685 nm, indicative of the efficient BV incorporation. Monomeric states of miRFPs was confirmed by a size exclusion chromatography at 1 mg/ml as well as at concentrations as high as 30 mg/ml (FIG. 1d).
To perform size exclusion liquid chromatography a 2 ml volume of purified miRFPs was applied on the HiLoad 16/600 Superdex 200 column (GE Healthcare) equilibrated with 10 mM Hepes buffer pH 7.4 containing 50 μM EDTA, 10% glycerol, 150 mM NaCl, 1 mM DTT, 0.2 mM PMSF, 0.01% EP-40 and 0.2 mM […]. A 1 ml/min flow rate was used. The column was calibrated using the gel filtration standards (Bio-Rad Laboratories).

FRB fused to miRFP-PAS (from UniProt P42345 2021-2113)
BiFC contrast 0.5 h after rapamycin addition [1]: 2 fold | BiFC contrast (the ratio between a stimulus-induced fluorescence signal and a fluorescence signal originated from non-specific complementation), miSplit670, HeLa cells, flow cytometry, 50 nM rapamycin [1]: > 20 fold | effective brightness of the complemented miSplit670 relative to parental full-length miRFP [1]: > 40% | BiFC contrast 0.5 h after rapamycin addition [2]: 2 fold | BiFC contrast (the ratio between a stimulus-induced fluorescence signal and a fluorescence signal originated from non-specific complementation), miSplit709, HeLa cells, flow cytometry, 50 nM rapamycin [2]: > 20 fold | effective brightness of the complemented miSplit709 relative to parental full-length miRFP [2]: > 40%

B1: miRFP720 (other)
chain: MAEGSVARQPDLLTCDDEPIHIPGAIQPHGLLLALAADMTIVAGSDNLPELTGLAIGALIGRSAADVFDSETHNRLTIALAEPGAAVGAPITVGFTMRKDAGFIGSWHRHDQLIFLELEPPQRDVAEPQAFFRRTNSAIRRLQAAETLESACAAAAQEVRKITGFDRVMIYRFASDFSGSVIAEDRCAEVESKLGLHYPASFIPAQARRLYTINPVRIIPDINYRPVPVTPDLNPVTGRPIDLSFAILRSVSPNHLEFMRNIGMHGTMSISILRGERLWGLIVCHHRTPYYVDLDGRQACKRVAERLATQIGVMEE
modifications: biliverdin (BV) chromophore
notes: Monomerized version of dimeric iRFP720 (derived from RpBphP2); also called monomerized iRFP720
binding result [3]: no binding (tested: 15 µM)

B2: miRFP-PAS (other)
chain: MVAGHASGSPAFGTASHSNCEHEEIHLAGSIQPHGALLVVSEHDHRVIQASANAAEFLNLGSVLGVPLAEIDGDLLIKILPHLDPTAEGMPVAVRCRIGNPSTEYCGLMHRPPEGGLIIELERAGP
notes: Split fragment; in the experiments it stood as a fusion (to FRB or to MCP); also called miRFP670-PAS domain; PAS fragment of miSplit670 and miSplit709
binding result [4]: binds | binding result [5]: binds

B3: miRFP670-2 (other)
chain: MARKVDLTSCDREPIHIPGSIQPCGCLLACDAQAVRITRITENAGAFFGRETPRVGELLADYFGETEAHALRNALAQSSDPKRPALIFGWRDGLTGRTFDISLHRHDGTSIIEFEPAAAEQADNPLRLTRQIIARTKELKSLEEMAARVPRYLQAMLGYHRVMLYRFADDGSGMVIGEAKRSDLESFLGQHFPASLVPQQARLLYLKNAIRVVSDSRGISSRIVPEHDASGAALDLSFAHLRSISPCHLEFLRNMGVSASMSLSIIIDGTLWGLIICHHYEPRAVPMAQRVAAKRFAERLSTHFTAAHHQR
modifications: biliverdin (BV) chromophore
notes: Monomerized version of dimeric iRFP670 (derived from RpBphP6); also called monomerized iRFP670
binding result [3]: no binding (tested: 15 µM)

B4: miRFP670 (other)
chain: MVAGHASGSPAFGTASHSNCEHEEIHLAGSIQPHGALLVVSEHDHRVIQASANAAEFLNLGSVLGVPLAEIDGDLLIKILPHLDPTAEGMPVAVRCRIGNPSTEYCGLMHRPPEGGLIIELERAGPSIDLSGTLAPALERIRTAGSLRALCDDTVLLFQQCTGYDRVMVYRFDEQGHGLVFSECHVPGLESYFGNRYPSSTVPQMARQLYVRQRVRVLVDVTYQPVPLEPRLSPLTGRDLDMSGCFLRSMSPCHLQFLKDMGVRATLAVSLVVGGKLWGLVVCHHYLPRFIRFELRAICKRLAERIATRITALES
modifications: biliverdin (BV) chromophore; filing says miRFP670 has the BV-binding Cys in the GAF domain (-PIH- motif Ile replaced by Cys)
notes: Monomeric near-infrared fluorescent protein engineered from the PAS-GAF domains of RpBphP1; also called mRFP670
binding result [6]: no binding (tested: 30 mg/ml)

B5: miRFP709 (other)
chain: MVAGHASGSPAFGTASHSNCEHEEIHLAGSIQPHGALLVVSEHDHRVIQASANAAEFLNLGSVLGVPLAEIDGDLLIKILPHLDPTAEGMPVAVRCRIGNPSTEYCGLMHRPPEGGLIIELERAGPSIDLSGTLAPALERIRTAGSLRALCDDTVLLFQQCTGYDRVMVYRFDEQGHGLVFSECHVPGLESYFGNRYPSSFIPQMARQLYVRQRVRVLVDVTYQPVPLEPRLSPLTGRDLDMSGCFLRSMSPIHLQFLKDMGVRATLAVSLVVGGKLWGLVVCHHYLPRFIRFELRAICKRLAERIATRITALES
modifications: biliverdin (BV) chromophore bound to the conserved Cys residue in the PAS domain
notes: Engineered from RpBphP1 PAS-GAF
binding result [6]: no binding (tested: 30 mg/ml)

B6: miRFP703 (other)
chain: MVAGHASGSPAFGTASHSNCEHEEIHLAGSIQPHGALLVVSEHDHRVIQASANAAEFLNLGSVLGVPLAEIDGDLLIKILPHLDPTAEGMPVAVRCRIGNPSTEYCGLMHRPPEGGLIIELERAGPSIDLSGTLAPALERIRTAGSLRALCDDTVLLFQQCTGYDRVMVYRFDEQGHGLVFSECHVPGLESYFGNRYPSSLVPQMARQLYVRQRVRVLVDVTYQPVPLEPRLSPLTGRDLDMSGCFLRSMSPIHLQFLKDMGVRATLAVSLVVGGKLWGLVVCHHYLPRFIRFELRAICKRLAERIATRITALES
modifications: biliverdin (BV) chromophore bound to the conserved Cys residue in the PAS domain
notes: as for B5
binding result [6]: no binding (tested: 30 mg/ml)

Reference: US20180044383A1 (ALBERT EINSTEIN COLLEGE OF MEDICINE, published 2018)
